Measured values published in patent US20190016760A1 (Sanofi, published 2019).
Like-named read-outs stand apart in the source and are kept apart here.

Key:
[1] = target: the molecule itself
[2] = target: the molecule itself; remark: listed apart in the source
[3] = target: the molecule itself; remark: listed apart in the source

B1: Shigella flexneri IpaD protein fused to the lamprey VLR-B antibody C-terminal domain SEQ ID NO: 2, expressed in E. coli (other)
chain: MNITTLTNSISTSSFSPNNTNGSSTETVNSDIKTTTSSHPVSSLTMLNDTLHNIRTTNQALKKELSQKTLTKTSLEEIALHSSQISMDVNKSAQLLDILSRHEYPINKDARELLHSAPKEAELDGDQMISHRELWAKIANSINDINEQYLKVYEHAVSSYTQMYQDFSAVLSSLAGWISPGGNDGNSVKLQVNSLKKALEELKEKYKDKPLYPANNTVSQEQANKWLTELGGTIGKVSQKNGGYVVSINMTPIDNMLKSLDNLGGNGEVVLDNAKYQAWNAGFSAEDETMKNNLQTLVQKYSNANSIFDNLVKVLSSTISSCTDTDKLFLHFNCTSIQERKNDGGDCGKPACTTLLNCANFLSCLCSTCALCRKR
notes: also called IpaD-lamprey
binding result [1]: binds

B2: Shigella flexneri MxiH protein fused to the lamprey VLR-B antibody C-terminal domain SEQ ID NO: 2, expressed in E. coli (other)
chain: MSVTVPNDDWTLSSLSETFDDGTQTLQGELTLALDKLAKNPSNPQLLAEYQSKLSEYTLYRNAQSNTVKVIKDVDAAIIQNFRNCTSIQERKNDGGDCGKPACTTLLNCANFLSCLCSTCALCRKR
notes: The expected monomer weight is 13.86 kDa; Found in the insoluble fraction; also called MxiH-lamprey
binding result [2]: binds

B3: Shigella flexneri MxiH protein fused to the lamprey VLR-B antibody C-terminal domain SEQ ID NO: 2, with GGSLE linker and 6xHis tag (other)
chain: MSVTVPNDDWTLSSLSETFDDGTQTLQGELTLALDKLAKNPSNPQLLAEYQSKLSEYTLYRNAQSNTVKVIKDVDAAIIQNFRNCTSIQERKNDGGDCGKPACTTLLNCANFLSCLCSTCALCRKRGGSLEHHHHHH
notes: also called MxiH-lamprey-His
binding result [3]: binds
